{"source": "paper PMC4259810", "key": {"DLC1 500-1,091": {"biological_target": "DLC1 500-1,091 (UniProt Q96QB1)", "assay": "GST pull-down from cotransfected cells, GFP blot", "conditions": "reference: GST-(1–550)-WT; sites S120,S205,S422,S509"}, "[1]": {"biological_target": "DLC1 Rho-GAP domain, 609-878 (UniProt Q96QB1)", "assay": "GST pull-down from cotransfected cells, GFP blot", "conditions": "sites S120,S205,S422,S509"}}}
{"substance": "DLC1 1-550 (from UniProt Q96QB1-1) GST-(1–550)-4A", "values": [{"measurement": "binding against the reference", "setting": "DLC1 500-1,091", "result": "stronger"}, {"measurement": "binding against the reference", "setting": "[1]; reference: GST-(1–550)-WT", "result": "stronger"}]}
{"substance": "DLC1 80-550 (from UniProt Q96QB1-1) GST-DLC1(80–550)-4A", "values": [{"measurement": "binding against the reference", "setting": "[1]; reference: GST-DLC1(80–550)-WT", "result": "stronger"}]}
